{"source": "patent US20020123056", "proteins": {"B1": {"name": "GST-SGK2 fusion protein (human SGK2 with N-terminal Glutathione S-transferase tag, expressed in Hi5 insect cells) (protein)", "chain": "MNSSPAGTPSPQPSRANGNINLGPSANPNAQPTDFDFLKVIGKGNYGKVLLAKRKSDGAFYAVKVLQKKSILKKKEQSHIMAERSVLLKNVRHPFLVGLRYSFQTPEKLYFVLDYVNGGELFFHLQRERRFLEPRARFYAAEVASAIGYLHSLNIIYRDLKPENILLDCQGHVVLTDFGLCKEGVEPEDTTSTFCGTPEYLAPEVLRKEPYDRAVDWWCLGAVLYEMLHGLPPFYSQDVSQMYENILHQPLQIPGGRTVAACDLLQSLLHKDQRQRLGSKADFLEIKNHVFFSPINWDDLYHKRLTPPFNPNVTGPADLKHFDPEFTQEAVSKSIGCTPDTVASSSGASSAFLGFSYAPEDDDILDC"}}, "key": {"[1]": {"molecular_target": "PDK1 peptide (PDKtide) …"}, "[2]": {"molecular_target": "T1, PKB-sub peptide (GSK3 consensus peptide) CKRPRAASFAE", "T1 chain": "CKRPRAASFAE"}}, "data": [{"protein": "B1", "values": [{"measurement": "in vitro kinase assay, 32P incorporation into peptide (purified SGK2)", "setting": "[1]", "value": "addition of same amount of control peptide (PDK1 peptide) had no significant incorporation"}, {"measurement": "in vitro kinase assay, 32P incorporation into peptide (purified SGK2)", "setting": "[2]", "value": "PKB-sub had significant incorporation of ^32P"}, {"measurement": "in vitro kinase assay, PDK1-activated versus non-activated SGK2", "setting": "[2]", "value": "the PDK1 activated SGK2 had significantly higher kinase activity compared to non-activated SGK2"}]}]}
